Assay [1] has as its target T1, lysozyme (hen (hen egg lysozyme, as named for the …, UniProt P00698 19-147)).
T1 construct: also called hen egg lysozyme; HEL
The assay can be described thus: SPR (BIACORE 3000), 100 nM lysozyme injected for 10 min; lysozyme bound divided by fragments immobilized; VH and VL fragments immobilized one after the other without antigen. The method, then: (§1) Time-dependent change in lysozyme binding over a period of 10 minutes from starting the addition of lysozyme was measured using BIACORE 3000. The binding ratio of lysozyme was obtained by dividing the binding amount of lysozyme during the 10-minutes-period by the immobilization amount of the antibody fragments.
(§2) The binding amount of lysozyme was calculated and expressed as a relative value, assuming that the binding amount of lysozyme in Comparative Example 2 is 1.
On the technique in general: In SPR one partner is held on a chip, and binding of the other changes the refractive index at the surface.

Assay [2] deals with T1, lysozyme. In words: SPR (BIACORE 3000), 100 nM lysozyme injected for 10 min; lysozyme bound divided by fragments immobilized; fragments immobilized as 10:10:3 complex with lysozyme, antigen washed off. Here is the method:
as §1, §2

Assay [3] has as its target T2, MBP-VH(BGP) and MBP-VL(BGP), separate MBP-fused VH-region and VL-region polypeptides of the anti-osteocalcin ….
T2 construct: Two separate chains, not linked, on SENSORCHIP CM5; Substrate I was made from the 1:1:1 complex with the BGP heptapeptide, which was then washed off; In J the chains were immobilized one after the other without antigen; Both entries as printed start with the MBP leader; also called immobilization substrates I, J
The assay can be described thus: SPR (BIACORE 3000), BGP heptapeptide over immobilized MBP-VH(BGP) and MBP-VL(BGP).
Method: Commercially available SENSORCHIP CM5 (trade name, manufactured by GE Healthcare) was set in a Surface Plasmon Resonance Analyzer (trade name: BIACORE 3000, manufactured by Biacore). The substrate surface was stabilized with HEPES buffer solution for SPR (20 mM HEPES-HCl, 150 mM NaCl, pH 7.4) at a flow rate of 10 μl/min, and then 70 μl of a mixed aqueous solution of 0.2 mM EDC and 0.04 mM NHS was injected thereonto. Thereafter, 50 μl of a two-fold dilution of the above complex sample solution with an acetate buffer (pH 4.5) was injected onto the substrate sample, and then blocking treatment was performed with an ethanolamine solution.
Time-dependent change in binding over a period of 10 minutes from starting the addition of the BGP heptapeptide was measured using BIACORE 3000. The binding ratio of the BGP heptapeptide was obtained by dividing the binding amount of the BGP heptapeptide over the 10-minutes-period by the immobilization amount of the antibody fragments.

T1 sequence (P00698 19-147 limits assumed): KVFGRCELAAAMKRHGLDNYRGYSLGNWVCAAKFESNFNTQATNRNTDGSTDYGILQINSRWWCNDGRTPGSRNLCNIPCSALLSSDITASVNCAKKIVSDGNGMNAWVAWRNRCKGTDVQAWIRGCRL

B1: VH(HEL)-His6 and VL(HEL)-His10, separate VH-region and VL-region polypeptides of the anti-hen egg lysozyme antibody LxE16, immobilized together on a sensor chip (other)
VH: EVQLQESGPSLVKPSQTLSLTCSVTGDSITRGYWSWIRKFPGNKLEYMGYISYSGSTFYNPSLKSRISITRDTFKNQLYLQLNSVTTEDTATYYCAEYDGTYWGQGTTVTVHHHHHHGAAEQKLISEEDLNGAA
VL: VEFAAQPAMASTDILMTQTPATLSVTPGDSVSLSCRASQSIGNNLHWFQQKSHESPRLLIKYASQSISGIPSRFSGSGSGTDFTLSINTVETEDFGMYFCQQSNSWPYTFGGGTKLEIKRAAAEHHHHHHHHHH
notes: Two separate chains, not linked; Substrate G was made from the 10:10:3 complex with lysozyme, which was then washed off; In H the chains were immobilized one after the other without antigen; also called immobilization substrates G, H
For B1, the Lysozyme binding ratio in assay [1] was 1 relative value (text: Comparative Example 2 = 1; in the table Comparative Example 4 stands at 1); in assay [2] it was 7.6 relative value (text: Comparative Example 2 = 1; in the table Comparative Example 4 stands at 1).

B2: C-terminal heptapeptide fragment of BGP (RRFYGPY) (peptide)
peptide: RRFYGPY
notes: also called BGP heptapeptide; osteocalcin C-terminal heptapeptide
For B2, the binding result in assay [3] was “binds”.
